Test results taken from the Human Domainome abundance scans (Beltran et al. 2025).

B1: POU domain, class 2, transcription factor 2, residues 200 to 269; numbered along this chain, P09086 (parent)
chain: LEELEQFARTFKQRRIKLGFTQGDVGLAMGKLYGNDFSQTTISRFEALNLSFKNMCKLKPLLEKWLNDAE

Variants of: B1
Test: abundance fitness (aPCA) (normalised: wild type 0, dead -1); higher = more abundant; growth selection in yeast, the domain comes from the species named
Conditions: Homo sapiens

Abundance fitness, by site and new letter:
G23: L -0.021 | A 0.04 | H -0.056 | D -0.055 | E -0.04 | M -0.01 | F -0.01 | Q -0.07 | Y -0.218 | T -0.102 | I -0.004 | V -0.029 | W -0.076 | R -0.004 | N -0.089 | P -0.136 | K 0.029
G19: D -0.143 | C -0.349 | N -0.022 | Y -0.908 | F -0.461 | W -0.926 | K -0.092 | H -0.086 | P -0.98 | S -0.118 | L -0.321 | E -0.301 | I -0.793 | T -0.521 | R -0.128 | Q -0.498 | V -0.986 | M -0.268
T21: M -0.26 | H -0.286 | Q -0.205 | K -0.173 | E -0.165 | G -0.135 | V -0.573 | F -0.625 | Y -0.77 | W -0.633 | S -0.044 | A -0.138 | I -0.746 | L -0.323 | R -0.14 | C -0.212
L18: I -0.099 | H -0.049 | E -0.253 | D -0.763 | V -0.234 | S -0.193 | K -0.177 | R -0.233 | C -0.213 | P -1.05 | F -0.035 | W -0.216 | N -0.044 | T -0.227 | Q -0.053 | Y -0.16 | G -0.159 | M 0.014 | A -0.025
R14: I -0.261 | A -0.064 | P -1.23 | N 0.03 | Y -0.149 | E -0.138 | T 0.023 | M -0.061 | G -0.021 | V -0.128 | D -0.327 | Q -0.084 | W -0.271 | K 0.024 | H -0.118
F11: E -0.977 | V -0.239 | G -0.789 | I -0.254 | D -0.565 | R -1.01 | K -0.961 | S -0.242 | Q -1.01 | N -1.1 | M -0.167 | L -0.177 | Y -0.627 | T -0.495 | W -0.209 | P -1.03 | A -0.151 | C -0.143
E3: W -0.263 | Y -0.127
L4: C -0.784 | S -0.253 | D -0.64 | G -0.655 | M -0.032 | I 0.012 | Q -0.233 | H 0.052 | F -0.055 | W -0.201 | P -0.367 | E -0.523 | T -0.11 | A -0.181 | K -0.797 | R -0.485 | N -0.763 | Y -0.408 | V -0.08
K17: R 0.006 | W -0.129 | C 0.011 | A -0.049 | G -0.027 | S -0.009 | T -0.07 | Q -0.096 | E -0.082 | L -0.006 | D 0.016 | H -0.2 | N 0.02 | F -0.096 | Y -0.121 | I -0.072 | M 0.001 | V -0.063
F20: V -0.13 | S -0.207 | T -0.317 | I -0.101 | L -0.004 | A -0.006 | Q -0.081 | D -0.899 | Y -0.111 | N -0.427 | H -0.035 | W -0.065 | K 0.005 | R -0.083 | P -1.01
R15: L -0.806 | P -1.16 | C -0.698 | S -1 | H -1.13 | I -0.85 | N -0.799 | F -0.99 | Y -0.243 | K -1.08 | E -0.897 | A -0.977 | W -0.913 | G -1.01 | T -1.01 | V -0.806 | Q -1.04
F7: P -1.13 | H -0.416 | W -0.1 | Y -0.192 | K -0.783 | C -0.114 | D -0.595 | V -0.237 | T -0.281 | Q -0.676 | I -0.397 | M -0.226 | R -0.96 | N -0.48 | E -0.357 | L -0.286
R9: K -0.011 | Q -0.143
K12: A -0.254 | I 0.02 | S -0.022 | N -0.583 | W -0.337 | R -0.142 | H -0.127 | E -0.147 | L -0.232
I16: D -0.133 | R -0.059 | N -0.003 | C -0.149 | Q -0.013 | Y -0.194 | K -0.021 | V -0.039 | A -0.085 | G -0.095 | E 0.048 | H -0.16 | S -0.071 | F -0.141 | T 0.017 | L -0.042 | P -0.895 | M -0.06
D24: L -0.215 | F -0.158 | G -0.113 | Q 0.003 | E -0.093 | P -0.918 | K -0.202 | R -0.177 | M -0.125 | C -0.172 | I -0.792 | H -0.065 | A -0.07 | N -0.091
Q22: R -0.11 | F -0.097 | C -0.004 | V -0.059 | K -0.042 | S -0.093 | N -0.351 | T -0.045 | A 0.004 | Y -0.423 | H -0.062 | M -0.054 | I -0.12 | P -0.071 | G -0.187 | L -0.025 | W -0.006
Q13: D -0.04 | M -0.023 | P -0.293 | L -0.033 | K -0.041 | N -0.07 | F -0.032 | S -0.006 | W -0.172 | Y -0.169 | H -0.085 | V -0.023 | E 0.06 | C -0.115 | G -0.038 | T 0.001 | R -0.054
E5: H 0.074 | Q -0.057 | Y -0.161 | I -0.293 | D -0.051 | P -0.5 | F -0.214 | L -0.093 | V -0.052 | W -0.073 | R 0 | N -0.224 | C -0.07 | M 0.048 | G -0.034 | A 0.005
A8: T -0.065 | Y -0.955 | P -0.506 | K -0.856 | L -0.371 | S -0.113 | I -0.082 | G -0.28 | V -0.057 | D -0.883 | C 0.034 | Q -0.63 | F -0.708 | E -0.846 | H -0.604 | W -0.452
Q6: T 0.003 | V -0.05 | R -0.019 | Y -0.056 | N -0.141 | S 0.001 | L -0.066 | A -0.095 | E -0.045 | K 0.079 | M 0.027 | W -0.086 | G -0.048 | D 0.001 | F -0.086 | H -0.236 | P -0.151 | I -0.028
T10: R -0.022 | D 0.022 | F 0.003 | N 0.012 | A -0.035 | P -1 | W -0.142 | Y -0.025 | M -0.011 | H -0.013 | C -0.084 | I -0.052 | V -0.04 | S -0.016 | K -0.024 | E 0.012 | Q 0.015
